The values that follow come from the DeepSol protein solubility set.

This series is described as follows: soluble on expression in E. coli; label from the status in PepcDB or PDB records.
With “MGSDKIHHHHHHMDADELELKGHLKKLKKEELLRRKQLKESNLQKRELEYNNASKNTSIYISGLPTDKTTKEGLTEQFCKYGMIRTNRDGEPLCKLYVNDKGAFKGDALITYSKEESVTLAIEMMNESIFLGKQIRVERAQFQNKEGDNMHGKENDLKEFNGPEPPIKRLKKAKSEGEGEVIDYNDDESLAKADRTVIFANVFNIYKSYTNDDINDIQEDLLEGCEEIGQVDSISVSPNKGEATVVFKNNKVALQCCKIMTGRYFDGQKLLAFISGDENTSSTSDKNEDSEVEDDLI”, the “soluble on expression in E. coli” value is “not soluble”. With “GNDEIGELALAFNNLSKRVQEAQANTESEKRRLDSVITHMSDGIIATDRRGRIRIVNDMALKMLGMAKEDIIGYYMLSVLSLEDEFKLEEIQENNDSFLLDLNEEEGLIARVNFSTIVQETGFVTGYIAVLHD”, the “soluble on expression in E. coli” value was “not soluble”. Regarding “MSLKAQRYASVLTLDNLTGRLVVVGDIHGCLAQLQGMLRAVSFKQGSDTLVAVGDLVNKGPDSFGVVRLLKRLGAHSVLGNHDVKLLKLVKKIREKGPLNERDTKSSLAPFALTVPVDVEVYLSQLPHIIRIPAHNVIMTHGGLHPQRPLDCQYIDEVTTLRNLIEKEQKAGGVTLVATPETKDGGVPWASLWRGPETVVFGHDSRRGLQEQYRPLAIGLDSGCVYGGRLSAAVFPGGHIVSVSGWRREAKEGHHHHHH”, the “soluble on expression in E. coli” value is recorded as “soluble”. With “MKFKRLRTSENKLYYKAMELYKISFPFHEQRKSSLQEEILKNKEYQFNLIYDKNQFVGIILCWETDDFIYVEHFCIFPEMRNNRYGQRALELLNKKGKTIILEIDLPIDEISIYRKAFYERVKYKTNNYEHIHP”, the “soluble on expression in E. coli” value is “not soluble”. For “MLRSLSTISKSTVRCMSLTSKMAAEQPSKQEVDDLFAEKPQHHNPEQRRHAYSVNKVELVGGVALDPLYKTGRNGKPYLIFNIITNSYFKQQDGTTLDQTERHAVSVFGKQAEILSKTIKKGSRLMVQGRLHYSGGQKDEQGNRTQRNTYIIAQTVQPLARAARENPDQH”, the “soluble on expression in E. coli” value is “not soluble”. Regarding “YHSTDGDTILVGKNNKQNDYLTNKKARKNHLWFHTKDIPGSHVVILNESPSETTIKEAAMLAGYFSKAGSSAQIPVDYTEIRHVHK”, the “soluble on expression in E. coli” value is given as “not soluble”. As for “MSSTIPALPGPEPGPGPGPAGPVSLTERRKAETRMEIARAAARLFVGQGLRATRAEDIARAAGVAPRTFYRYFATKEEAVAPLYALGAERWVRAVREAPAELSPPEALERAVRHTLTPGAGVSAPSWEWARTLIRLAESSPALRKVWAEVCHSTERGLVQALAARMSGGDDNVAVRLAASPRLHFAAAVAGASVRVAAEHWASSSPQGARSPLEQALLNLEVLRGFAWEAGPAEEG”, the “soluble on expression in E. coli” value is “not soluble”. “MGNRLSKIATRTGDDGTTGLGDGSRVRKDDARIAAIGDVDELNSQIGVLLAEPLPDDVRAALSAIQHDLFDLGGELCIPGHAAITDAHLARLDGWLAHYNGQLPPLEEFILPGGARGAALAHVCRTVCRRAERSIVALGASEPLNAAPRRYVNRLSDLLFVLARVLNRAAGGADVLWDRTRAH”: the “soluble on expression in E. coli” value was “soluble”.

With “MAATVVIVAWIANRPPASSHEPSPTPNTQLAEQPLIGLGGGVTVRELTQDTPFSLVALTGDLAGTSARVRAKRPDGDWGPWYQTEYETEPRDPAGTDGSVELGGLNPGPRSTDPVFVGTTTTVQVAVTRPIDAPITQPPAGRPPNDLLDSGLGYRPATKEQPFGQNISAILISPPQAPPGTQWTPPTAVTMAGQPPAIISRAEWGADESLRCETPEYDRGVRAAVVHHTAGSNDYSPLESAGIVKAIYTYHSKTLGWCDIAYNALVDKYGQVFEGSAGGLTKPVEGFHTGGFNRNTWGVAMIGNFDDVAPTPIQIRTVGRLLGWRLGMDDVDPRSMVDLQSAGSSYTTFPGGAIARLPAIFTHRDVGNTDCPGNAAYAVMDEIRDIAAHFNDPPEELIKALEGGAIYQRWQALGGMNSALGAPTSPEADAADGARYATFAKGAMYWSPVTDAQPITGAIYEAWASQSYERGPLGLPTSAEIQEPLQITQNFQHGTLNFERLTGNVTEVVDGITTPLATRPPSGPTVPPEHFTLPTHPIT”, the “soluble on expression in E. coli” value is “soluble”.

Regarding “GMALTPDQMPDRAEVVFTCNGKAVGKMRNELDVAMVKPFEERFALATDEGAFHGGDASAPPPLALFIAGLTGCVMTQIRAFAKRLKVTVTDLDVECRVVWDWAKAGPVYETGPKSFEIDIILHSPDPIEAQQALIEAAKKGCFLEQTLGQANTIRHRLKVGDTFIDA”, the “soluble on expression in E. coli” value is listed as “soluble”. As for “MGSDKIHHHHHHMPHSVPPLTDIGPLPTASTVRTVVFSDFDETYLAHSGTPEQVRSRQALENYLEDAGERHGLLFGWVTGSSLSSVLGKARRHGLRFLPHFIACSLGTELHVISEAGIQPEPGWQRRMLTTGEHLEGLAEEAFRELRTRGVPLVPQSCRAPGSRVISYYYFAQDPERDARQLALIRRTADRLSLGVNLSRCNPAAGDPDDCYDVDFLPRDCGKRHIVEYICRLYAVSEADAFAFGDSGNDLEMLTAVGRGLLVGNCTEEARARYPQVSARSHADAILSELRGVLP”, the “soluble on expression in E. coli” value was “not soluble”. In the case of “LQEVGSTFNIEVSILKDQATIMIDTTGSSLFKRGYRVQKGGAPIKENMAAAILALSNWFPDKPLVDPTCGSGTFCIEAAMIGMNIAPGFNRSFAFEEWSWVDKDMVQQVRDDAEQEANYEIELDISGFDIDGRMIEIAKSNAEEAGLSDVITFKQMRLQDFRTDKVNGVVISNPPYGERLLDDKAVDILYNEMGQTFAPLKTWSKFILTSDELFELKYGQKADKKRKLYNGTLKVDLYQFYGERVKRHLI”, the “soluble on expression in E. coli” value is listed as “not soluble”.

Consider “MGSDKIHHHHHHMGQRIPVTLGNIAPLAVKPFRPGKLALVCEGGGQRGIFTAGVLDEFMRAGFNPFDLMLGTSAGAQNLSAYMCNQQGYARKVITRYTTSRQFFDPMRFVRGGNLIDLDWLVEATSQQMPLAMNYAEAQFALGKELWLCACRGDDYSASYFSPTPQTWLDLIRASSAIPGFYRSGVLLDGVSYLDGGVSDAIPVQEAARRGAQTIVVIRTVPSQMFYTPQWFKRMERWLGESSLQPLVNLVHHHETTYRAIQQFIEKPPGKLRIFEIYPQRPLRSMALGSRLPALLEDYKTGRQCGRYFLATVGKLLADQPPLLRHAPRIARPAPVVVPPVPVANEAPQATIIPAPQANDPSFDHEDLA”, for which the “soluble on expression in E. coli” value was “not soluble”. With “AEKANQVSNIKTQLAMEYMRGQDYRQATASIEDALKSDPKNELAWLVRAEIYQYLKVNDKAQESFRQALSIKPDSAEINNNYGWFLCGRLNRPAESMAYFDKALADPTYPTPYIANLNKGICSAKQGQFGLAEAYLKRSLAAQPQFPPAFKELARTKMLAGQLGDADYYFKKYQSRVEVLQADDLLLGWKIAKALGNAQAAYEYEAQLQANFPYSEELQTVLTGQ”, the “soluble on expression in E. coli” value was “soluble”. Regarding “MSLNNIQIRNYQPGDFQQLCAIFIRAVTMTASQHYSPQQISAWAQIDESRWKEKLAKSQVWVAIINAQPVGFISRIEHYIDMLFVDPEYTRRGVASALLKPLIKSESELTVDASITAKPFFERYGFQTVKQQRVECRGAWFTNFYMRYKPQHEGGSHHHHHH”, the “soluble on expression in E. coli” value was “soluble”. With “MSLKEDFDLKTHIESSGHGVDTCLHVVLSSKVCRGYLVKMGGKIKSWKKRWFVFDRLKRTLSYYVDKHETKLKGVIYFQAIEEVYYDHLRSAAKKRFFRFTMVTESPNPALTFCVKTHDRLYYMVAPSAEAMRIWMDVIVTGAEGYTQFMNEGHHHHHH”, the “soluble on expression in E. coli” value is on record as “not soluble”. Regarding “MAHHHHHHMKALQRGWRVICATRGGVPIHGSPLYNDFTSLQQKHGDTLSQGVAHDTCHVPQPLEFVSLDATSRLQVFQFMDDHPDASAIISCIGLLTRDHEMARRVCGDANVNIAAALYERRAVARRMVLISAEPVGTRAGFFLNSRWALKGYFMGKRVAERAVLENLGDDGAVLRPGFIYGTRHVPLGEGCVPVPLWPIGKPLEAVLRPLHLHGLLVPPISVDVVAEAAVRLAEAPGPSTVLDYYGMQQVCGLPQDGHHVLGG”, the “soluble on expression in E. coli” value is given as “not soluble”. In the case of “MGSDKIHHHHHHMKVVKFGGSSLASSQQLYKVLNIIKSDYTRRFVVVSAPGKRYEEDLKMTDALIQYYQNYINGKDIVKDQTWIINRYQEIISDLSLGSTIAEEITRSIEQLASLPIENNQFLYDCFLAAGEDNNAKLVATFFNQNDIPARYVHPNEAGIIVTKEPCNARIIPGSYDKIENLCLYNEVLVIPGFFGVTEDNQICTFSRGGSDITGSLIAAGIKADLYENFTDVDGIFAAHPGVVKNPHAIPELTYKEMRELAYAGFSVLHDEALLPAYRGRIPLVIKNTNNPQQPGTKIVLKHTRSNIAVTGIASDSRFASINVSKYLMNREVGFGRKVLQILEDLNISFEHMPTGIDDLSIVLREKELTPIKEQEILNYLTRKLEVDYVDIQHNLSTIVIVGENMKSQIGVTATATQALSREKINITMISQGSSEVSIMFVINSKDEKRAIKALYETFFQK”, the “soluble on expression in E. coli” value is reported as “not soluble”.

Consider “DLKYILETKLEEERNHLEELLEKVEEDYEGINYDEVLEALKLFKDNYELPKSKIKRKIRIFLIKENILFLNPQKGTLKPQSYLVWNAIKRML”, for which the “soluble on expression in E. coli” value was “soluble”. For “MCSLNELITGIKELPEPDLTASRLMDAAADYVPLKLRGHIDAKDINSSPKTLENGGTEFFQALIDITHPRLRLYGSGKELAENVRIHRNFPTSHRSPIIYKSLDNNQYIYKTDVFIIIQNICGYRKDSTNNIIELNRFLEVMYLKAREETSRKYLEFVRFDADSFRKIEKKFEKFNQGACFVDRSLEQRNSNGDHLPIVQELDSMKSIEFIQHPIQRAKHKAVPIEDLKPGSYCILAVDALFELFNEIIWGSRVFEKHKVPKIIEYVLKIPTLLFKSELRFPHFIKTAHLHRLLASFEVSLSSFHFPANPVKEVRNAKADHGFTLQNLKNELTYLGLTETFPDITDYAEIAYNEVMRVKKEMLLRTCDLFDAIEHCQLLCIFNRSPFLKQFLHNQKACHRLVGLHCDLCIKEKVEKSENQEAWDLDESSSTKSPIDCKKCSQTLQTIEDVKKELKTSQNKENKMRKKVSELEKKLDVENVQNEQEVKEMEDDLRGKQEELNILRNDSLKVHDVLMEIADLKQKHSKLEKHVEGLKEENLKQERNYNLTQSNLEANLSSMREGLTILQQYTEELEQERQKYQEMLTARSEETSVQAEPAGGEEEMLDVTKQIEEAKEEKIRLKAEHDANERIIQQLLDKLANFS”, the “soluble on expression in E. coli” value is listed as “not soluble”.

For the sequence “DAARRGGAAGGGGPRSPRRSGPLGPHACPPALPEPKVTSTMSSQVVGIEPLYIKAEPASPDSPKGSSETETEPPVTLASGPAPARCLPGHKEEEDGEGAGSGEQGSGKLVLSSLPKRLCLVCGDVASGYHYGVASCEACKAFFKRTIQGSIEYSCPASNECEITKRRRKACQACRFTKCLRVGMLKEGVRLDRVRGGRQKYKRRPEVDPLPFPGPFPAGPLAVAGGPRKTAPVNALVSHLLVVEPEKLYAMPDPASPDGHLPAVATLCDLFDREIVVTISWAKSIPGFSSLSLSDQMSVLQSVWMEVLVLGVAQRSLPLQDELAFAEDLVLDEEGARAAGLGDLGAALLQLVRRLQALRLEREEYVLLKALALANSDSVHIEDAEAVEQLREALHEALLEYEAGRAGPGGGAERRRAGRLPCTLPLLRQTAGKVLAHFYGVKLEGKVPMHKLFLEMLEAMMD”, the “soluble on expression in E. coli” value was “soluble”. Under “MKPEKIDCNFKLIYCEDEESKGGRLEFSLEEVLAISRNVYKRVRTNRKHHHHHH” stands “soluble”; under “MGSDKIHHHHHHMLNLEQLNAFIAAVEKGSFSAAARHIGKSQSSVSIGVNNLELDLGVELFDRSTKYPQLTEQGERLYHQAKALMRQATRMESYAKGVIEAVEDQLVIGADPLVPMSVFDSALEKMAEKFPFTRVKLVKLTGNHLNRAIEADEVDVGFNIMSEAVPENLDFIGIARIEWVCICSPDYKFADLEAVDSEMLINERQIVCSSMLQNEYLAKLGRVSQETWEASDLDDMIRLVEQGIGWGIIPLSMYEEKAAIGTLSTFKPVIEKETGLITVDLLWKSTAQLGPAKSFFIDLLKR”, “not soluble”.
